This data set deals with the molecule itself. Description: cryo-EM structure.

B1: elastase-digested native human uromodulin filaments (UMODe) (domain or fragment)
chain: not shown
modifications: N-glycans at N322, N396, N513
As for B1, the binding result is “binds”.

Source of the values: doi:10.1101/2020.05.28.119206 (bioRxiv, 2020).
